In the supplement of paper PMC11316812:
± gives the standard deviation of the averaged measurements.

Assays:
hTERT-HMEC = assay: percentage of EdU-negative (G0-arrested) nuclei per well, 72 h; higher = more G0 arrest; conditions: reference: sequence is the full UniProt precursor, the tested protein was the secreted form or ectodomain
MCF7 = assay: as above; conditions: reference: sequence is the full UniProt precursor, the tested protein was the secreted form or ectodomain
[1] = protein concentration 0.0225 µM
[2] = protein concentration 0.0357143 µM
[3] = protein concentration 0.357143 µM
[4] = protein concentration 0.0257143 µM
[5] = protein concentration 0.257143 µM
[6] = protein concentration 0.03125 µM
[7] = protein concentration 0.3125 µM
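Further: secreted proteins added to cultured cells, EdU pulse at the end, nuclei found by Hoechst imaging, EdU status from nuclear versus surrounding ring intensity ratio, PBS as neutral control.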

## MKLPLLLALLFGAVSALHLRSETSTFETPLGAKTLPEDEETPEQEMEETPCRELEEEEEWGSGSEDASKKDGAVESISVPDMVDKNLTCPEEEDTVKVVGIPGCQTCRYLLVRSLQTFSQAWFTCRRCYRGNLVSIHNFNINYRIQCSVSALNQGQVWIGGRITGSGRCRRFQWVDGSRWNFAYWAAHQPWSRGGHCVALCTRGGHWRRAHCLRRLPFICSY
hTERT-HMEC; [1]
  percentage of EdU-negative: 5.28 ± 0.63%
hTERT-HMEC; protein concentration 0.225 µM
  percentage of EdU-negative: 4.45 ± 0.14%
MCF7; [1]
  percentage of EdU-negative: 26.5 ± 0.76%
MCF7; protein concentration 0.225 µM
  percentage of EdU-negative: 29 ± 0.95%

## MKLQCVSLWLLGTILILCSVDNHGLRRCLISTDMHHIEESFQEIKRAIQAKDTFPNVTILSTLETLQIIKPLDVCCVTKNLLAFYVDRVFKDHQEPNPKILRKISSIANSFLYMQKTLRQCQEQRQCHCRQEATNATRVIHDNYDQLEVHAAAIKSLGELDVFLAWINKNHEVMFSA [Q9UHD0]
hTERT-HMEC; [2]
  percentage of EdU-negative: 5.09 ± 0.068%
hTERT-HMEC; [3]
  percentage of EdU-negative: 6.97 ± 1.1%
MCF7; [2]
  percentage of EdU-negative: 24.3 ± 3%
MCF7; [3]
  percentage of EdU-negative: 27.41 ± 0.059%

## MKLSGMFLLLSLALFCFLTGVFSQGGQVDCGEFQDPKVYCTRESNPHCGSDGQTYGNKCAFCKAIVKSGGKISLKHPGKC [Q6UWN8]
hTERT-HMEC; [4]
  percentage of EdU-negative: 4.92 ± 0.69%
hTERT-HMEC; [5]
  percentage of EdU-negative: 5.15 ± 0.39%
MCF7; [4]
  percentage of EdU-negative: 24.2 ± 1.2%
MCF7; [5]
  percentage of EdU-negative: 27.2 ± 3%

## MKLVFLVLLFLGALGLCLAGRRRSVQWCAVSQPEATKCFQWQRNMRKVRGPPVSCIKRDSPIQCIQAIAENRADAVTLDGGFIYEAGLAPYKLRPVAAEVYGTERQPRTHYYAVAVVKKGGSFQLNELQGLKSCHTGLRRTAGWNVPIGTLRPFLNWTGPPEPIEAAVARFFSASCVPGADKGQFPNLCRLCAGTGENKCAFSSQEPYFSYSGAFKCLRDGAGDVAFIRESTVFEDLSDEAERDEYELLCPDNTRKPVDKFKDCHLARVPSHAVVARSVNGKEDAIWNLLRQAQEKFGKDKSPKFQLFGSPSGQKDLLFKDSAIGFSRVPPRIDSGLYLGSGYFTAIQNLRKSEEEVAARRARVVWCAVGEQELRKCNQWSGLSEGSVTCSSASTTEDCIALVLKGEADAMSLDGGYVYTAGKCGLVPVLAENYKSQQSSDPDPNCVDRPVEGYLAVAVVRRSDTSLTWNSVKGKKSCHTAVDRTAGWNIPMGLLFNQTGSCKFDEYFSQSCAPGSDPRSNLCALCIGDEQGENKCVPNSNERYYGYTGAFRCLAENAGDVAFVKDVTVLQNTDGNNNEAWAKDLKLADFALLCLDGKRKPVTEARSCHLAMAPNHAVVSRMDKVERLKQVLLHQQAKFGRNGSDCPDKFCLFQSETKNLLFNDNTECLARLHGKTTYEKYLGPQYVAGITNLKKCSTSPLLEACEFLRK [E7EQB2]
hTERT-HMEC; protein concentration 0.01 µM
  percentage of EdU-negative: 5.27 ± 0.58%
hTERT-HMEC; protein concentration 0.1 µM
  percentage of EdU-negative: 5.87 ± 0.35%
MCF7; protein concentration 0.01 µM
  percentage of EdU-negative: 22.5 ± 0.39%
MCF7; protein concentration 0.1 µM
  percentage of EdU-negative: 24.6 ± 0.5%

## MKLWDVVAVCLVLLHTASAFPLPAGKRPPEAPAEDRSLGRRRAPFALSSDSNMPEDYPDQFDDVMDFIQATIKRLKRSPDKQMAVLPRRERNRQAAAANPENSRGKGRRGQRGKNRGCVLTAIHLNVTDLGLGYETKEELIFRYCSGSCDAAETTYDKILKNLSRNRRLVSDKVGQACCRPIAFDDDLSFLDDNLVYHILRKHSAKRCGCI
hTERT-HMEC; [6]
  percentage of EdU-negative: 5.08 ± 0.53%
hTERT-HMEC; [7]
  percentage of EdU-negative: 5.86 ± 0.094%
MCF7; [6]
  percentage of EdU-negative: 24.9 ± 0.95%
MCF7; [7]
  percentage of EdU-negative: 29.1 ± 0.3%
